Assay results taken from US20260258155A1 (TRIVENI BIO, published 2026).
Residue numbers refer to the chain shown, from its start.

B1: KLK7-L2-Ab3 (antibody, V domains shown)
VH: QVQLQESGPGLVKPSQTLSLTCTVSGGSISSGGYSWNWIRQHPGKGLEWIGSIYRSGSTYYNPSLKSRVTISVDTSKNQFSLKLSSVTAADTAVYYCARAKALTTHRYVDYWGQGTLVTVSS
VL: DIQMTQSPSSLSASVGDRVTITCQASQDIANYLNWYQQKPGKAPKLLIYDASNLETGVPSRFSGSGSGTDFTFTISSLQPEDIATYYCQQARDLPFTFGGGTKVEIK
B2: KLK7-L4-Ab2 (antibody, V domains shown)
VH: QLQLQESGPGLVKPSETLSLTCTVSGGSISSSPYNWVWIRQPPGKGLEWIGSILHSGSTYYNPSLKSRVTISVDTSKNQFSLKLSSVTAADTAVYYCARGVPTYWGAASHYYYYMDVWGKGTTVTVSS
VL: DIQMTQSPSTLSASVGDRVTITCRASQSISSWLAWYQQKPGKAPKLLIYKASSLESGVPSRFSGSGSGTEFTLTISSLQPDDFATYYCEQYGSESPLTFGGGTKVEIK
B3: KLK7-L3-Ab2 (antibody, V domains shown)
VH: QVQLVQSGAEVKKPGSSVKVSCKASGGTFNNYAISWVRQAPGQGLEWMGAIIPIFGVANYAQKFQGRVTITADESTSTAYMELSSLRSEDTAVYYCARGAPNYYGAQSSRGIAFDIWGQGTMVTVSS
VL: DIQMTQSPSSVSASVGDRVTITCRASQGISSWLAWYQQKPGKAPKLLIYAASSLQSGVPSRFSGSGSGTDFTLTISSLQPEDFATYYCVQANAFPYKFGGGTKVEIK
B4: KLK7-L3-Ab3 (antibody, V domains shown)
VH: B3 VH with N30S, N31S, Y32H, S35T, A50G, V57F, A106S, Q107A
VL: B3 VL with K97S
B5: KLK7-L1-Ab4 (antibody, V domains shown)
VH: QVQLVQSGAEVKKPGASVKVSCKASGYTFTSEGIHWVRQAPGQGLEWMGSISASSGDTNYAQKLQGRVTMTTDTSTSTAYMELRSLRSDDTAVYYCARAAGYGARHWYFDLWGQGTMVTVSS
VL: DIQMTQSPSSLSASVGDRVTITCRASQSISSYLNWYQQKPGKAPKLLIYGASSLQSGVPSRFSGSGSGTDFTLTISSLQPEDFATYYCDQFYSTPPITFGGGTKVEIK
B6: KLK7-L1-Ab3 (antibody, V domains shown)
VH: B5 VH with K63E
VL: B5 VL
B7: KLK7-L1-Ab5 (antibody, V domains shown)
VH: B5 VH
VL: B5 VL with F91W
B8: KLK7-L1-Ab2 (antibody, V domains shown)
VH: B5 VH with T30G, S31P, E32Y, H35S, S50W, S54Y, H106W
VL: B5 VL with Q90G, F91S
B9: KLK7-L2-Ab2 (antibody, V domains shown)
VH: B1 VH with S35Y, N37H, S52Y, S58Y, A102Q, V109F
VL: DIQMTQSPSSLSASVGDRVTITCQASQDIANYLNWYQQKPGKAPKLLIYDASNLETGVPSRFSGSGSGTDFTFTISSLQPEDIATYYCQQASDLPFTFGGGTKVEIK
B10: KLK7-L2-Ab5 (antibody, V domains shown)
VH: B1 VH with S35Y, N37H, S52Y, S58Y, A102Q, H106S, V109F
VL: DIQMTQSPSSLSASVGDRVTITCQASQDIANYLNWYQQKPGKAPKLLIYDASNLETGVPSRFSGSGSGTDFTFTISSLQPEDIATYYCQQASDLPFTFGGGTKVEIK
B11: KLK7-L2-Ab1 (antibody, V domains shown)
VH: B1 VH with S35Y, N37S, R55Y, A102Q, V109F
VL: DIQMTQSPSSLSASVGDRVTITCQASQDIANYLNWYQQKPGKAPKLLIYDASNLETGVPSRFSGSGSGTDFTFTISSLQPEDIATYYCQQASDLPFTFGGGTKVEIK
B12: KLK7-L2-Ab4 (antibody, V domains shown)
VH: B1 VH with A102Q, T105L, H106T, V109F
VL: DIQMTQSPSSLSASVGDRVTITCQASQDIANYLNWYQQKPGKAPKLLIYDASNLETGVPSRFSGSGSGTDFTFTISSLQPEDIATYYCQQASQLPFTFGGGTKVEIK
B13: KLK7-L5-Ab1 (antibody, V domains shown)
VH: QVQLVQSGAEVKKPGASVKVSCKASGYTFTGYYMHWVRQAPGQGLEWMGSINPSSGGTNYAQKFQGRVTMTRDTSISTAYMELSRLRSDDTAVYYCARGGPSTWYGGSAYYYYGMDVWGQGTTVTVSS
VL: EIVLTQSPGTLSLSPGERATLSCRASQSVSSDYLAWYQQKPGQAPRLLIYGASSRATGIPDRFSGSGSGTDFTLTISRLEPEDFAVYYCQQYANLWTFGGGTKVEIK
B14: KLK7-L5-Ab2 (antibody, V domains shown)
VH: QVQLVQSGAEVKKPGASVKVSCKASGYTFAGYDMHWVRQAPGQGLEWMGSINPTSGRTNYAQKFQGRVTMTRDTSISTAYMELSRLRSDDTAVYYCARGGPSTWYGGSAYTYYGADVWGQGTTVTVSS
VL: B13 VL with N94P
B15: KLK7-L1-Ab6 (antibody, V domains shown)
VH: B5 VH with H106S
VL: B5 VL
B16: KLK7-L1-Ab1 (antibody, V domains shown)
VH: B5 VH with A16S, Y27G, T30S, S31N, E32Y, G33A, H35S, S50W, S54Y
VL: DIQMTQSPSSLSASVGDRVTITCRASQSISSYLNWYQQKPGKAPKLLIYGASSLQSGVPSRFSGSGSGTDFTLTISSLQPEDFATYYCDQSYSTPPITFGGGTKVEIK
B17: KLK7-L1-Ab7 (antibody, V domains shown)
VH: B5 VH with A99G, H106D
VL: B5 VL with F91R

Molecular target: human KLK7 (hKLK7), active form (human, UniProt P49862 30-253)
Test: cell-based or functional assay

human KLK7 (hKLK7), active form, sequence (P49862 30-253): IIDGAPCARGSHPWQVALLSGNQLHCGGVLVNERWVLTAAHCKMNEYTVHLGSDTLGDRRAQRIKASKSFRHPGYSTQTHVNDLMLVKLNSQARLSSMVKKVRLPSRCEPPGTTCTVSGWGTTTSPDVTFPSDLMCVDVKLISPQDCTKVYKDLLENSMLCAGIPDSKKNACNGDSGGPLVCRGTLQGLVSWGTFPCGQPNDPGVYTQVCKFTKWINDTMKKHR

Binder | hKLK7 IC50 (protease inhibition) | hKLK7 IC90 (protease inhibition)
B1 | 0.833 nM | 3.39 nM
B2 | 1.42 nM | 6.34 nM
B3 | 0.802 nM | 4.43 nM
B4 | 1.4 nM | 8.25 nM
B5 | 0.914 nM | 3.67 nM
B6 | 1.2 nM | 5.03 nM
B7 | 1.23 nM | 4.66 nM
B8 | 1.69 nM | 6.11 nM

Molecular target: T1, mouse KLK7 (mKLK7) (mouse, UniProt Q91VE3 26-249)
Test: cell-based or functional assay

T1 sequence (Q91VE3 26-249 limits assumed): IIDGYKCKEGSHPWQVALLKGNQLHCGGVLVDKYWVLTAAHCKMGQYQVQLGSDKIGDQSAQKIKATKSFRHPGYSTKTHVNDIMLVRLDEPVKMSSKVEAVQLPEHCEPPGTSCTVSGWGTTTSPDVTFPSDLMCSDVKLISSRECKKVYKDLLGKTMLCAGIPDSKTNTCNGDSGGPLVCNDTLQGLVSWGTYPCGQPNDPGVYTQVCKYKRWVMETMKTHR

Binder | mKLK7 IC50 (protease inhibition) | mKLK7 IC90 (protease inhibition)
B9 | 2.31 nM | 6.01 nM
B10 | 1.91 nM | 6.52 nM
B1 | 1.49 nM | 4.88 nM
B11 |  | 5.63 nM
B12 | 1.63 nM | 6.51 nM
B2 | 2.42 nM | 9.04 nM
B13 | 15 nM | 67.3 nM
B14 | 1.48 nM | 26.5 nM
B3 | 2.68 nM | 11.5 nM
B4 | 3.34 nM | 11.4 nM
B5 | 1.42 nM | 7.12 nM
B6 | 1.46 nM | 6.45 nM
B15 | 1.25 nM | 4.58 nM
B16 | 0.5 nM | 108 nM
B17 | 1.06 nM | 5.03 nM
B7 | 1.35 nM | 7.25 nM
B8 | 3.42 nM | 19.8 nM

Molecular target: T1, mouse KLK7 (mKLK7)
Test: Biacore SPR, antibody captured on Protein A chip, single-cycle kinetics, 25 C
Experimental: All screening assays were performed at 25 C. The running buffer used was 20 mM HEPES, 300 mM NaCl, 0.01% Tween-20, pH 7.5. Antibodies (1 ug/mL) were captured on Fc2-4 of a Series S ProteinA Sensor Chip (Cytiva) flowing at 10 ul/mL for 30 s. Kinetics measurements were made in single-cycle kinetics mode with a series of 4-5 concentrations with top concentration of 25-100 nM and serial dilution 4-fold. Contact time was typically 300 s and dissociation time ranged from 1800-3600 s. Flow rate of 30 ul/mL was typically used. The sensor chip was regenerated with 10 mM glycine, pH 1.5 with a contact time of 30 s flowing at 50 ul/mL.

Binder | Kd
B9 | 0.0357 nM
B10 | 0.018 nM
B11 | 0.0796 nM
B12 | 0.0101 nM
B2 | 0.0266 nM
B13 | 4.86 nM
B14 | 0.0253 nM
B3 | 0.125 nM
B4 | 0.217 nM
B5 | 0.0107 nM
B6 | 0.0402 nM
B15 | 0.0144 nM
B16 | 1.62 nM
B17 | 0.0302 nM
B7 | 0.017 nM
B8 | 0.0354 nM
